Test results from US20060280745A1 (MEDICAL RESEARCH COUNCIL, published 2006).

Biological target: T1, murine PrP^c (mouse, UniProt P04925 23-230)
T1 construct: also called mouse PrP^c; normal cellular prion protein
Assay: immunoblot of whole spleen homogenate (FIG. 5)

T1 sequence (P04925 23-230 limits assumed): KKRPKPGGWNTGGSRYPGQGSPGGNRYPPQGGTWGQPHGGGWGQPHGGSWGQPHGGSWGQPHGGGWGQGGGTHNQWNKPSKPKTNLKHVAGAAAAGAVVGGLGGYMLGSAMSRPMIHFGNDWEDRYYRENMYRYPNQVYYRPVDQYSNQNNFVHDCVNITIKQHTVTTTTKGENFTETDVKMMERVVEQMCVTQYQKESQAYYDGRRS

B1: ICSM 18 (antibody, V domains shown)
VH: EVQLQQSGPELVKPGSSVKISCKASRNTFTDYNLDWVKQSHGKTLEWIGNVYPNNGVTGYNQKFRGKATLTVDKSSSTAYMELHSLTSEDSAVYYCALYYYDVSYWGQGTLVTVSA
VL: QIVLTQSPAIMSASPGEKVTMTCSASSSVSYMHWYQQKSGTSPKRWIYDTSKLASGVPARFSGSGSGTSYSLTISSMEAEDAATYFCHQWRSNPYTFGGGTKLEIKR
notes: also called biotinylated ICSM 18
Question: Does B1 bind?
Answer: Result: binds
